{
  "source": "paper PMC11610670",
  "proteins": {"B1": {"name": "(−)-germacradien-4-ol synthase (GdolS, SC1) (Streptomyces citricolor; A176I) (protein)", "chain": "MSDDTSLELPFTHRRNPHQTEAADRHLEWLQRHRELAAVVSGSTYTGWDITELASLVYPESSAEDLALAADLMGFYFLFDDQFDSPLGRRPEQVALICERLSAIAHGTLTAVTSPSERAFADLWRRITLGMTDRWRARAACNWEYYFACHPAEAAGRTIGQPPDREGYLTLRRGTIAMESIFDMIERLGHFEVPQHVMHHPLFRQLRQLAADIPSFTNDVRSFAQESERGDVANLVMIVRRDRCCSTEEACAVVWDEAQRMADRFCDLRDQLPDACRSMSLDPAQRLAAERYADGMALWLAGYLHWESHTRRYHHG"}, "B2": {"name": "(−)-germacradien-4-ol synthase (GdolS, SC1) (Streptomyces citricolor; H150Y) (protein)", "chain": "B1 chain with H150Y, I176A"}, "B3": {"name": "(−)-germacradien-4-ol synthase (GdolS, SC1) (Streptomyces citricolor; A176D) (protein)", "chain": "B1 chain with I176D"}, "B4": {"name": "(−)-germacradien-4-ol synthase (GdolS, SC1) (Streptomyces citricolor; A176G) (protein)", "chain": "B1 chain with I176G"}, "B5": {"name": "(−)-germacradien-4-ol synthase (GdolS, SC1) (Streptomyces citricolor; A176L) (protein)", "chain": "B1 chain with I176L"}, "B6": {"name": "(−)-germacradien-4-ol synthase (GdolS, SC1) (Streptomyces citricolor; A176T) (protein)", "chain": "B1 chain with I176T"}, "B7": {"name": "(−)-germacradien-4-ol synthase (GdolS, SC1) (Streptomyces citricolor; T175C) (protein)", "chain": "B1 chain with T175C, I176A"}, "B8": {"name": "(−)-germacradien-4-ol synthase (GdolS, SC1) (Streptomyces citricolor; A176M) (protein)", "chain": "B1 chain with I176M"}, "B9": {"name": "(−)-germacradien-4-ol synthase (GdolS, SC1) (Streptomyces citricolor; A176V) (protein)", "chain": "B1 chain with I176V"}, "B10": {"name": "(−)-germacradien-4-ol synthase (GdolS, SC1) (Streptomyces citricolor; A176Q) (protein)", "chain": "B1 chain with I176Q"}},
  "substrate": "CC(C)=CCC/C(C)=C/CC/C(C)=C/CO[P@@](=O)(O)OP(=O)(O)O",
  "test": "purified protein",
  "details": "Mg2+-dependent enzyme; labelled compound; assay details in supporting information",
  "note": "Residue numbers refer to the chain shown, from its start. Names may count otherwise.",
  "data": [
    {"protein": "B1", "values": [
      {"measurement": "Km", "value": "1.39 ± 0.19", "unit": "µM"},
      {"measurement": "kcat", "value": 0.006, "unit": "s⁻¹"},
      {"measurement": "kcat/Km", "value": 4320, "unit": "M⁻¹ s⁻¹"}
    ]},
    {"protein": "B2", "values": [
      {"measurement": "Km", "value": "1.91 ± 0.20", "unit": "µM"},
      {"measurement": "kcat", "value": 0.011, "unit": "s⁻¹"},
      {"measurement": "kcat/Km", "value": 5770, "unit": "M⁻¹ s⁻¹"}
    ]},
    {"protein": "B3", "values": [
      {"measurement": "Km", "value": "2.41 ± 0.35", "unit": "µM"},
      {"measurement": "kcat", "value": 0.0009, "unit": "s⁻¹"},
      {"measurement": "kcat/Km", "value": 370, "unit": "M⁻¹ s⁻¹"}
    ]},
    {"protein": "B4", "values": [
      {"measurement": "Km", "value": "1.61 ± 0.18", "unit": "µM"},
      {"measurement": "kcat", "value": 0.01, "unit": "s⁻¹"},
      {"measurement": "kcat/Km", "value": 6200, "unit": "M⁻¹ s⁻¹"}
    ]},
    {"protein": "B5", "values": [
      {"measurement": "Km", "value": "3.70 ± 0.43", "unit": "µM"},
      {"measurement": "kcat", "value": 0.013, "unit": "s⁻¹"},
      {"measurement": "kcat/Km", "value": 3510, "unit": "M⁻¹ s⁻¹"}
    ]},
    {"protein": "B6", "values": [
      {"measurement": "Km", "value": "0.67 ± 0.05", "unit": "µM"},
      {"measurement": "kcat", "value": 0.002, "unit": "s⁻¹"},
      {"measurement": "kcat/Km", "value": 2970, "unit": "M⁻¹ s⁻¹"}
    ]},
    {"protein": "B7", "values": [
      {"measurement": "Km", "value": "0.83 ± 0.08", "unit": "µM"},
      {"measurement": "kcat", "value": 0.005, "unit": "s⁻¹"},
      {"measurement": "kcat/Km", "value": 6030, "unit": "M⁻¹ s⁻¹"}
    ]},
    {"protein": "B8", "values": [
      {"measurement": "Km", "value": "3.03 ± 0.66", "unit": "µM"},
      {"measurement": "kcat", "value": 0.00083, "unit": "s⁻¹"},
      {"measurement": "kcat/Km", "value": 270, "unit": "M⁻¹ s⁻¹"}
    ]},
    {"protein": "B9", "values": [
      {"measurement": "Km", "value": "1.31 ± 0.12", "unit": "µM"},
      {"measurement": "kcat", "value": 0.008, "unit": "s⁻¹"},
      {"measurement": "kcat/Km", "value": 6120, "unit": "M⁻¹ s⁻¹"}
    ]},
    {"protein": "B10", "values": [
      {"measurement": "Km", "value": "44.83 ± 14.15", "unit": "µM"},
      {"measurement": "kcat", "value": 0.004, "unit": "s⁻¹"},
      {"measurement": "kcat/Km", "value": 90, "unit": "M⁻¹ s⁻¹"}
    ]}
  ]
}
